# Data: US20240018502A1
# Substitutions are numbered along the chain they refer to. Names may count otherwise.
# B1: Q38H/I41A/D60bV/F60eR/Y60gW/D96I/F97N/T98G/F99L/C122S/G151H/Q175L/Q192D (enzyme)
# chain: VVGGTDADEGEWPWQVSLHALGHGHACGASLISPNWLVSAAHCYIDVRGRRWSDPTQWTAFLGLHDQSQRSAPGVQERRLKRIISHPFFNINGLDYDIALLELEKPAEYSSMVRPISLPDASHVFPAGKAIWVTGWGHTQYGGTHALILQKGEIRVINQTTCENLLPQLITPRMMCVGFLSGGVDSCDGDSGGPLSSVEADGRIFQAGVVSWGDGCAQRNKPGVYTRLPLFRDWIKENTGV
# B2: Q38H/I41S/D60bT/F60eS/Y60gW/D96I/F97N/T98G/F99L/C122S/G151N/Q175L/Q192D (enzyme)
# chain: B1 chain with A26S, V47T, R50S, H145N
# B3: Q38Y/I41S/D60bT/Y60gW/D96M/F97N/T98G/F99L/C122S/G151N/Q175L/Q192D (enzyme)
# chain: B1 chain with H23Y, A26S, V47T, R50F, I91M, H145N
# B4: ins97aY/F97G/T98V/C122S/Q175M/Q192S/D217V (enzyme)
# chain: VVGGTDADEGEWPWQVSLHALGQGHICGASLISPNWLVSAAHCYIDDRGFRYSDPTQWTAFLGLHDQSQRSAPGVQERRLKRIISHPFFNDGYVFDYDIALLELEKPAEYSSMVRPISLPDASHVFPAGKAIWVTGWGHTQYGGTGALILQKGEIRVINQTTCENLLPQMITPRMMCVGFLSGGVDSCSGDSGGPLSSVEADGRIFQAGVVSWGVGCAQRNKPGVYTRLPLFRDWIKENTGV
# B5: Q38H/I41A/D60bV/F60eR/Y60gW/D96P/ins97aN/F97W/T98G/F99L/C122S/G151H/Q175L/Q192E (enzyme)
# chain: VVGGTDADEGEWPWQVSLHALGHGHACGASLISPNWLVSAAHCYIDVRGRRWSDPTQWTAFLGLHDQSQRSAPGVQERRLKRIISHPFFNPWNGLDYDIALLELEKPAEYSSMVRPISLPDASHVFPAGKAIWVTGWGHTQYGGTHALILQKGEIRVINQTTCENLLPQLITPRMMCVGFLSGGVDSCEGDSGGPLSSVEADGRIFQAGVVSWGDGCAQRNKPGVYTRLPLFRDWIKENTGV
# B6: Q38H/I41A/D60bV/F60eR/Y60gW/D96S/ins97aR/F97A/T98S/F99L/C122S/G151N/Q175L/Q192T (enzyme)
# chain: B5 chain with P91S, W92A, N93R, G94S, H146N, E189T
# B7: Q38F/I41S/D60bF/F60eR/Y60gF/F97T/ins97aE/T98G/F99L/C122S/G151N/Q175L/Q192V (enzyme)
# chain: B5 chain with H23F, A26S, V47F, W52F, P91D, W92T, N93E, H146N, E189V
# B8: Q38H/I41A/F60eH/Y60gW/ins97aE/F97T/T98G/F99L/C122S/Q175L/Q192A (enzyme)
# chain: B5 chain with V47D, R50H, P91D, W92T, N93E, H146G, E189A
# B9: Q38H/I41A/D60bV/F60eA/Y60gW/F97T/ins97aE/T98G/F99L/C122S/Q175L/Q192V (enzyme)
# chain: B5 chain with R50A, P91D, W92T, N93E, H146G, E189V
# B10: Q38H/I41A/D60bV/F60eR/Y60gW/D96P/ins97aN/F97W/T98G/F99L/C122S/G151N/Q175L/Q192E (enzyme)
# chain: B5 chain with H146N
# B11: Q38H/I41S/D60bT/F60eS/Y60gW/D96K/F97G/ins97aV/T98P/F99L/C122S/T150S/G151H/Q175L/Q192D/Q209L (enzyme)
# chain: B5 chain with A26S, V47T, R50S, P91K, W92G, N93V, G94P, T145S, E189D, Q207L
# B12: Q38H/I41A/D60bT/F60eK/Y60gW/F97T/ins97aE/T98G/F99L/C122S/Q175L/Q192A (enzyme)
# chain: B5 chain with V47T, R50K, P91D, W92T, N93E, H146G, E189A
# B13: Q38F/I41A/D60bT/F60eG/Y60gW/ins97aE/F97T/T98G/F99L/C122S/Q175L/Q192E (enzyme)
# chain: B5 chain with H23F, V47T, R50G, P91D, W92T, N93E, H146G
# B14: Q38H/I41S/D60bF/F60eV/F97D/ins97aV/T98P/F99L/C122S/G151N/Q175L/Q192A (enzyme)
# chain: B5 chain with A26S, V47F, R50V, W52Y, P91D, W92D, N93V, G94P, H146N, E189A
# B15: Q38H/I41A/D60bV/F60eR/Y60gW/D96P/ins97aN/F97W/T98G/F99L/C122S/G151N/Q175L/Q192D (enzyme)
# chain: B5 chain with H146N, E189D
# B16: Q38H/I41A/D60bV/F60eT/Y60gW/ins97aE/F97T/T98G/F99L/C122S/Q175L/Q192E (enzyme)
# chain: B5 chain with R50T, P91D, W92T, N93E, H146G
# B17: Q38H/I41A/D60bV/F60eR/Y60gW/D96P/ins97aN/F97W/T98G/F99L/C122S/G151H/Q175L/Q192D (enzyme)
# chain: B5 chain with E189D
# B18: Q38H/I41S/D60bT/F60eS/Y60gW/D96L/ins97aG/F97D/T98N/F99L/C122S/G151H/Q175L/Q192E (enzyme)
# chain: B5 chain with A26S, V47T, R50S, P91L, W92D, N93G, G94N
# B19: Q38H/I41A/D60bV/F60eR/Y60gW/D96I/ins97aN/F97Y/T98G/F99L/C122S/G151N/Q175L/Q192D (enzyme)
# chain: B5 chain with P91I, W92Y, H146N, E189D
# B20: Q38H/I41S/D60bT/F60eS/Y60gW/ins97aV/F97D/T98P/F99L/C122S/G151H/Q175L (enzyme)
# chain: B5 chain with A26S, V47T, R50S, P91D, W92D, N93V, G94P, E189Q
# B21: Q38H/I41S/D60bT/F60eS/Y60gW/D96V/F97G/ins97aV/T98P/F99L/C122S/G151H/Q175L/Q192D (enzyme)
# chain: B5 chain with A26S, V47T, R50S, P91V, W92G, N93V, G94P, E189D
# B22: Q38H/I41A/D60bT/F60eH/Y60gW/ins97aE/F97T/T98G/F99L/C122S/Q175L/Q192D (enzyme)
# chain: B5 chain with V47T, R50H, P91D, W92T, N93E, H146G, E189D
# B23: Q38H/I41A/D60bV/F60eR/Y60gW/ins97aE/F97T/T98G/F99L/C122S/Q175L/Q192D (enzyme)
# chain: B5 chain with P91D, W92T, N93E, H146G, E189D
# B24: Q38H/I41A/D60bV/F60eI/Y60gW/F97T/ins97aE/T98G/F99L/C122S/G151N/Q175L/Q192D (enzyme)
# chain: B5 chain with R50I, P91D, W92T, N93E, H146N, E189D
# B25: Q38H/I41A/D60bV/F60eR/Y60gW/D96I/ins97aN/F97Y/T98G/F99L/C122S/G151H/Q175L/Q192D (enzyme)
# chain: B5 chain with P91I, W92Y, E189D
# B26: Q38H/I41S/D60bT/F60eS/Y60gW/D96K/F97G/ins97aA/T98P/F99L/C122S/G151H/Q175L/Q192D (enzyme)
# chain: B5 chain with A26S, V47T, R50S, P91K, W92G, N93A, G94P, E189D
# B27: Q38H/I41S/D60bT/F60eS/Y60gW/D96K/F97G/ins97aV/T98P/F99L/C122S/G151H/Q175L (enzyme)
# chain: B5 chain with A26S, V47T, R50S, P91K, W92G, N93V, G94P, E189Q
# B28: Q38H/I41S/D60bT/F60eS/Y60gW/D96F/F97D/ins97aE/T98S/F99L/C122S/G151H/Q175L/Q192A (enzyme)
# chain: B5 chain with A26S, V47T, R50S, P91F, W92D, N93E, G94S, E189A
# B29: Q38H/I41S/D60bY/D96Y/ins97aV/F97D/T98P/F99L/L106M/C122S/I136M/Q192G/Q209L/D217T (enzyme)
# chain: VVGGTDADEGEWPWQVSLHALGHGHSCGASLISPNWLVSAAHCYIDYRGFRYSDPTQWTAFLGLHDQSQRSAPGVQERRLKRIISHPFFNYDVPLDYDIALMELEKPAEYSSMVRPISLPDASHVFPAGKAMWVTGWGHTQYGGTGALILQKGEIRVINQTTCENLLPQQITPRMMCVGFLSGGVDSCGGDSGGPLSSVEADGRIFLAGVVSWGTGCAQRNKPGVYTRLPLFRDWIKENTGV
# B30: H40R/I41H/F97D/F99L/C122S/Q175M/Q192G/D217V/K224Y (enzyme)
# chain: VVGGTDADEGEWPWQVSLHALGQGRHCGASLISPNWLVSAAHCYIDDRGFRYSDPTQWTAFLGLHDQSQRSAPGVQERRLKRIISHPFFNDDTLDYDIALLELEKPAEYSSMVRPISLPDASHVFPAGKAIWVTGWGHTQYGGTGALILQKGEIRVINQTTCENLLPQMITPRMMCVGFLSGGVDSCGGDSGGPLSSVEADGRIFQAGVVSWGVGCAQRNYPGVYTRLPLFRDWIKENTGV
# B31: I41G/F97I/F99L/C122S/G151L/Q175M/Q192S/D217V (enzyme)
# chain: B30 chain with R25H, H26G, D92I, G145L, G188S, Y221K
# B32: Q38Y/I41A/D60bL/F60eQ/ins97aV/F97D/T98P/F99L/C122S/G151N/Q175M/Q192A (enzyme)
# chain: VVGGTDADEGEWPWQVSLHALGYGHACGASLISPNWLVSAAHCYIDLRGQRYSDPTQWTAFLGLHDQSQRSAPGVQERRLKRIISHPFFNDDVPLDYDIALLELEKPAEYSSMVRPISLPDASHVFPAGKAIWVTGWGHTQYGGTNALILQKGEIRVINQTTCENLLPQMITPRMMCVGFLSGGVDSCAGDSGGPLSSVEADGRIFQAGVVSWGDGCAQRNKPGVYTRLPLFRDWIKENTGV
# B33: Q38H/I41S/D60bS/ins97aV/F97D/T98P/F99L/M117L/C122S/I136T/Q192G/D217I (enzyme)
# chain: B29 chain with Y47S, Y91D, M102L, M113L, M132T, L207Q, T215I
# B34: Q38H/I41A/D60bW/ins97aV/F97D/T98P/F99L/C122S/I136M/Q192G/D217N (enzyme)
# chain: B29 chain with S26A, Y47W, Y91D, M102L, L207Q, T215N
# B35: Q38H/I41S/D60bF/F60eT/ins97aV/F97D/T98P/F99L/C122S/H143Q/G151N/Q175L/Q192G (enzyme)
# chain: B32 chain with Y23H, A26S, L47F, Q50T, H139Q, M170L, A189G
# Biological target: human complement protein C3 (human) (UniProt P01024)
# Sequence (P01024 23-667, chain 1 of 2): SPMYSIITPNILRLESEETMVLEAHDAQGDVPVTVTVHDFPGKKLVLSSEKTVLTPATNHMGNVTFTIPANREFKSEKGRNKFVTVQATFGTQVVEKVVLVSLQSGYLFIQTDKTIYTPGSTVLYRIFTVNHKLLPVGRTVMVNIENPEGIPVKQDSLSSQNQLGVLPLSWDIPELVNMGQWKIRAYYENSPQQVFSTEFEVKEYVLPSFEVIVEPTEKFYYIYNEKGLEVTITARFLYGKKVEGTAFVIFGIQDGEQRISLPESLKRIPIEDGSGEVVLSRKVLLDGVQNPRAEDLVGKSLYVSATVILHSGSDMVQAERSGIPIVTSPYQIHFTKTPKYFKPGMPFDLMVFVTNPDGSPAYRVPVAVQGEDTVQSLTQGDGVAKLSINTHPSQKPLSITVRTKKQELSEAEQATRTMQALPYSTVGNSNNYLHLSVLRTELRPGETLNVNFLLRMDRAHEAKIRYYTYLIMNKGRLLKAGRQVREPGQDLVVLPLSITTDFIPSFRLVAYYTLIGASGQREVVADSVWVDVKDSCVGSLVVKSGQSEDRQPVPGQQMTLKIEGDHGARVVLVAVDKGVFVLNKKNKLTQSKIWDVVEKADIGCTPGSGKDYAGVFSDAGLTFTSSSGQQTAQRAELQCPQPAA
# Sequence (P01024 672-1663, chain 2 of 2): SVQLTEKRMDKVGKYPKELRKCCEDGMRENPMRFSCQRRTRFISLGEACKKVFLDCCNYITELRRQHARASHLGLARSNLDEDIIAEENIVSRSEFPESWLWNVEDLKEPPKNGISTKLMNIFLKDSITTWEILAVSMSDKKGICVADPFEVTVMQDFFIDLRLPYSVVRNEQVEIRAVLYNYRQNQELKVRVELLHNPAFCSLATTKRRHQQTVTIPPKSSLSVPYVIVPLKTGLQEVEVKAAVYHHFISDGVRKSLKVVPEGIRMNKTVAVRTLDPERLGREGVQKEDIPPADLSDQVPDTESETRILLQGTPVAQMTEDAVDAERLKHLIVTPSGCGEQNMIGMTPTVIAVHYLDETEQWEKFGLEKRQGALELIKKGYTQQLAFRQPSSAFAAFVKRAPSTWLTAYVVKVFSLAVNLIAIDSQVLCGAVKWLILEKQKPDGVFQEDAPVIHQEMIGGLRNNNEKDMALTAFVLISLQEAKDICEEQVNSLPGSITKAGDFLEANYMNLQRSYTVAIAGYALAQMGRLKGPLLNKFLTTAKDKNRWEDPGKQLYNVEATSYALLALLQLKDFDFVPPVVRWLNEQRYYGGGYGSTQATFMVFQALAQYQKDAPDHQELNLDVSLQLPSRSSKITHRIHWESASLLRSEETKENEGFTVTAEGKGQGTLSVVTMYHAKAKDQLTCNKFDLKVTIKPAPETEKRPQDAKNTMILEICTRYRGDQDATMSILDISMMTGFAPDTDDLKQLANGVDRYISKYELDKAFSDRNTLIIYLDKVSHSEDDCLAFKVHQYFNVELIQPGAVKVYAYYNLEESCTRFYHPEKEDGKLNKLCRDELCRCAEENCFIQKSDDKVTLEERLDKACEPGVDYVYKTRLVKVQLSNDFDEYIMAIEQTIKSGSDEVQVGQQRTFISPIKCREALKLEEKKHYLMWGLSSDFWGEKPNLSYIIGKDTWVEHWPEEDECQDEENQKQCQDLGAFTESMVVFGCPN
# Assay: cell-based or functional assay
row,Binder,"EC50 (nM), cleavage of purified hC3 in vitro"
1,B1,2.52 nM
2,B2,3.04 nM
3,B3,3.08 nM
4,B4,2.42 nM
5,B5,1.11 nM
6,B6,2.07 nM
7,B7,1.96 nM
8,B8,3.09 nM
9,B9,1.57 nM
10,B10,1.51 nM
11,B11,2.88 nM
12,B12,2.71 nM
13,B13,1.25 nM
14,B14,1.57 nM
15,B15,2.54 nM
16,B16,1.39 nM
17,B17,1.83 nM
18,B18,1.59 nM

row,Binder,"EC50 (nM), cleavage of purified hC3 in vitro"
1,B19,2.23 nM
2,B20,1.31 nM
3,B21,2.85 nM
4,B22,2.28 nM
5,B23,2.37 nM
6,B24,2.91 nM
7,B25,1.57 nM
8,B26,1.43 nM
9,B27,1.45 nM
10,B28,1.17 nM
11,B29,1.97 nM
12,B30,2.76 nM
13,B31,2.84 nM
14,B32,1.53 nM
15,B33,2.43 nM
16,B34,3.06 nM
17,B35,3.07 nM
